Test results taken from article doi:10.1101/173674.

What was measured:
Test in all cases: crystal structure
[1] = biological target: HpiC1 F138S (Fischerella sp. ATCC 43239)
[2] = biological target: HpiC1 W73M/K132M selenomethionine derivative (Fischerella sp. ATCC 43239)
[3] = biological target: HpiC1 Y101F (Fischerella sp. ATCC 43239)
[4] = biological target: HpiC1 Y101F/F138S (Fischerella sp. ATCC 43239)
[5] = biological target: HpiC1 Y101S (Fischerella sp. ATCC 43239)
[6] = biological target: HpiC1 native (Fischerella sp. ATCC 43239)

Substance: HpiC1 F138S (enzyme)
- stoichiometry N [1]: 2

Substance: HpiC1 W73M/K132M selenomethionine derivative (enzyme)
- stoichiometry N [2]: 2

Substance: HpiC1 Y101F (enzyme)
- stoichiometry N [3]: 2

Substance: HpiC1 Y101F/F138S (enzyme)
- stoichiometry N [4]: 2

Substance: HpiC1 Y101S (enzyme)
- stoichiometry N [5]: 2

Substance: HpiC1 native (enzyme)
- stoichiometry N [6]: 2
